Results on 3 molecules are retold here after patent CN113929780A.

The target in experiment [1] is 人Claudin18.2 (human Claudin18.2, 密蛋白18.2) (human) (UniProt P56856). Nature of the experiment: relative binding activity against the control antibody, after strong-acid stress.
Experiment [2] has the same target. The experiment can be described thus: relative binding activity against the control antibody, after repeated freezing and thawing.

Residue numbers refer to the chain shown, from its start. A value given as a limit tells only on which side of the number the result lay.

B1: BY6-3 (antibody, IgG1, V domains shown)
VH: QVQLVQSGSELKKPGASVKISCKASGYSFTNYGMNWVRQAPGQGLKWMGWINTNTGEPTYAEEFKGRFVFSLDTSVSTAYLQISSLKAEDTAVYYCARLGFGNAMDYWGQGTLVTVSS
VL: DIVMTQSPDSLAVSLGERATMNCKSSQTLLNSGNQKNYLTWYQQKPGQPPKLLIYWATTRESGVPDRFSGSGSGTDFTLTISSLQAEDVAVYYCQNDYTYPLTFGAGTKLEIK
B1 returned a 相对结合活性 (relative to the control antibody BY0-0) in experiment [1] of 80%.

B2: BY6-1 (antibody, IgG1, V domains shown)
VH: B1 VH
VL: B1 VL with T99S
Regarding B2, the 相对结合活性 (relative to the control antibody BY0-0) in experiment [2] was > 80%.

B3: BY6-4 (antibody, IgG1, V domains shown)
VH: B1 VH
VL: B1 VL with Q35N, T99S
In experiment [1], B3 came in with a 相对结合活性 (relative to the control antibody BY0-0) of 80%.
